Reference: publication PMC9521185, “Self-assembly and label-free fluorescent aptasensor based on deoxyribonucleic acid intercalated dyes for detecting lactoferrin in milk powder”

Biological target: lactoferrin (LF) (bovine (milk), UniProt P24627 20-708)
Experiment: PicoGreen dye-displacement fluorescence; PicoGreen; LF 100 nM and 1 uM; linear 20-500 nM, LOD 3 nM; Buffer, salt, pH and temperature not in the material; fluorescence ex 485 nm / em 528 nm, microplate reader
Conditions: protein: commercial; label: none (label-free; PicoGreen intercalated)

Sequence of lactoferrin (LF) (P24627 20-708): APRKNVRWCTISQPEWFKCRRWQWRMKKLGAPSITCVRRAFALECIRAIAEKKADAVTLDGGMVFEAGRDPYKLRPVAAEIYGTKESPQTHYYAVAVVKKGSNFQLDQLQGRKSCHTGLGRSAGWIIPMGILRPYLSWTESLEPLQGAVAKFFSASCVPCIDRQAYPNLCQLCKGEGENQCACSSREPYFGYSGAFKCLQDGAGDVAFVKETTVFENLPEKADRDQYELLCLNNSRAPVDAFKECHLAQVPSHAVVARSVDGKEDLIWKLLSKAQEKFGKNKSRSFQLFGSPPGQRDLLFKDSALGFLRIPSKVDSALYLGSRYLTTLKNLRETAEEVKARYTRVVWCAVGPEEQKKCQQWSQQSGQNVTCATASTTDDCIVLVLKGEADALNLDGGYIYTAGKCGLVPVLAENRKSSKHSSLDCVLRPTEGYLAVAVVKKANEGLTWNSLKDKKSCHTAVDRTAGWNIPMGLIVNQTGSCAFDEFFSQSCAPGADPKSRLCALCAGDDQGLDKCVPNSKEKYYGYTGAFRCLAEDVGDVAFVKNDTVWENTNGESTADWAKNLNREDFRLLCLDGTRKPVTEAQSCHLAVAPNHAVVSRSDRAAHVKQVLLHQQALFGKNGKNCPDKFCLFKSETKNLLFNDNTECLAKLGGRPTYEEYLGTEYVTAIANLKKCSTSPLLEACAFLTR

TGGTGCTGCCCCTAGTCTCCGGCTGATAGCTGCTTCTTGG (ssDNA) [LF aptamer]
binding result: binds
